From patent publication CN116355089A

How the values were obtained:
[1] = target: 生物素标记的抗原多肽; test: BLI (Fortebio Octet), biotinylated peptide on SA biosensor, antibody at 1.56-100 nM
[2] = target: 人IV型胶原蛋白α3链多肽 (human); test: indirect ELISA, purified antibody on plates coated with 0.5 μg/ml peptide

Kd [1]: 0.399 nM | EC50 [2]: 4.64 ng/mL
B1: 4E5E2-1 (antibody, IgG1, V domains shown)
VH: EVQLQQSGAELVRSGASVKLSCTASGFNIKDSNIHWLIQRPEQDLEWIGWIDPDNGDSEYAPKFQGEATMTADTSSNTAYLQLSSLTSEDTAVYFCNAVNWDYFDYWGQGTTLTVSS
VL: DVVVTQTPLSLPVSLGDQASISCRSSQSLVHNNGNTYLHWYLQRPGQSPKLLIYKVSNRFSGVPDRVSGSGSGTDFTLKISRVEAEDLGVYFCSQSTHIPITFGSGTKLEIK
